Consider one molecule from patent US20250236663A1.

The target in assay [1] is Recombinant human FAM19A5 protein (His-tagged) (human) (UniProt Q7Z5A7). The assay is described as follows: ELISA, N'-Term His. More on the design: unit not given here. For orientation: In an ELISA, binding on a coated surface is turned into a signal by an enzyme label.
The target is the same in assay [2]. The assay is described as follows: ELISA, N'-Term His; R² 0.9422.
Assay [3] addresses FAM19A5 epitope fragment F1 (BSA-conjugated) (human). In words: ELISA on the coated BSA-conjugated fragment.
Assay [4] deals with FAM19A5 epitope fragment F2 (BSA-conjugated) (human). The assay is described as follows: ELISA on the coated BSA-conjugated fragment.
In assay [5] the target is FAM19A5 epitope fragment F3 (BSA-conjugated) (human). In words: ELISA on the coated BSA-conjugated fragment.
The target in assay [6] is FAM19A5 epitope fragment F4 (BSA-conjugated) (human). In words: ELISA on the coated BSA-conjugated fragment.
Assay [7] addresses FAM19A5 epitope fragment F6 (BSA-conjugated) (human). In words: ELISA on the coated BSA-conjugated fragment.
Assay [8] deals with Recombinant human FAM19A5 protein (His-tagged) (human) (UniProt Q7Z5A7). In words: ELISA on coated His-tagged FAM19A5 (positive control); the bar ends at the top of the axis.

B1: Anti-FAM19A5 (P2-C12) (antibody, V domains shown)
VH: QSLEESGGRLVTPGTPLTLTCTVSGFSLSTYAVTWVRQAPGKGLEWIGYINWRGGTSYANWAKGRFTISKTSSTTVDLKMTSPTTEDTATYFCARDASSGAAFGSYGMDPWGPGTLVTVSS
VL: ELDMTQTPSSVSAAVGGTVTIKCQASQSISSYLSWYQQKPGQPPKLLIYEASKLASGVPSRFSGSGYGTEFTLTISDLECADAATYYCQQGYSSTNVWNAFGGGTNVEIK
As usually defined, the Kd is a measure of binding affinity in units of concentration. On to B1, for which, in assay [1], the Bmax came to 1.73. In addition, the Kd in assay [2] is 7.64 nM. The O.D (492nm) in assay [3] turned out to be 0.139; in assay [4], 0.394; in assay [5] it was 0.224; in assay [6], 0.162; in assay [7], 0.139; in assay [8], 4.
